What is called stoichiometry N is a count of units in the complex or per binding partner.

First the molecules themselves.
B1: MinD (natural protein)
chain: MARIIVVTSGKGGVGKTTSSAAIATGLAQKGKKTVVIDFDIGLRNLDLIMGCERRVVYDFVNVIQGDATLNQALIKDKRTENLYILPASQTRDKDALTREGVAKVLDDLKAMDFEFIVCDSPAGIETGALMALYFADEAIITTNPEVSSVRDSDRILGILASKSRRAENGEEPIKEHLLLTRYNPGRVSRGDMLSMEDVLEILRIKLVGVIPEDQSVLRASNQGEPVILDINADAGKAYADTVERLLGEERPFRFIEEEKKGFLKRLFGG
B2: MinD D40A (natural protein)
chain: B1 chain with D40A
B3: MinE (natural protein)
chain: MALLDFFLSRKKNTANIAKERLQIIVAERRRSDAEPHYLPQLRKDILEVICKYVQIDPEMVTVQLEQKDGDISILELNVTLPEAEELK

Where a chain is given by its changes, count along the chain named. In names and notes the source's numbering stands. Several values for one entry are separate records, joined by “and”; a condition that tells them apart may be missing. Equal values may be shown once.

Series [1] deals with the molecule itself. Nature of the series: mass-sensitive particle tracking.
Series [2] deals with B1. Briefly: mass-sensitive particle tracking.

B1: the “stoichiometry N” value in series [1] is 2 and > 2 and 3 and 4.
Take B2: the “stoichiometry N” value in series [1] is 2 and 4.
For the molecule B3, in series [2], the binding result is listed as “binds”.

The values above are taken from paper doi:10.1101/2021.04.08.438961 (bioRxiv, 2021).
